Assay results from doi:10.1101/545921 (bioRxiv, 2019).

B1: Glycolytic glyceraldehyde-3-phosphate dehydrogenase of Arabidopsis thaliana (AtGAPC1), native / reduced (enzyme, UniProt P25858 1-338, looked up)
chain: MADKKIRIGINGFGRIGRLVARVVLQRDDVELVAVNDPFITTEYMTYMFKYDSVHGQWKHNELKIKDEKTLLFGEKPVTVFGIRNPEDIPWAEAGADYVVESTGVFTDKDKAAAHLKGGAKKVVISAPSKDAPMFVVGVNEHEYKSDLDIVSNASCTTNCLAPLAKVINDRFGIVEGLMTTVHSITATQKTVDGPSMKDWRGGRAASFNIIPSSTGAAKAVGKVLPALNGKLTGMSFRVPTVDVSVVDLTVRLEKAATYDEIKKAIKEESEGKLKGILGYTEDDVVSTDFVGDNRSSIFDAKAGIALSDKFVKLVSWYDNEWGYSSRVVDLIVHMSKA
B2: H2O2-oxidized AtGAPC1 (AtGAPC1-SO2H) (enzyme, Arabidopsis thaliana, UniProt P25858 1-338, looked up)
chain: B1 chain
modifications: sulfinic acid or sulfinate (-SO2H or -SO2-) at Cys149
B3: IAM-pretreated AtGAPC1 WT (WT-IAM) (enzyme, Arabidopsis thaliana, UniProt P25858 1-338, looked up)
chain: B1 chain
modifications: Cys149 alkylated by iodoacetamide (IAM)

Biological target: the molecule itself
Test: dynamic light scattering
With B1 the “stoichiometry N” value was 4.
With B2 the “stoichiometry N” value was 4.
B3 was tested, and the “stoichiometry N” value was 4.
